According to patent publication US6878861B2, “Acyl coenzyme A thioesterases” (Washington State University Research Foundation, priority 2000, dated 2005):
“Also recorded” adds a separate entry of the source.

Assay: Acyl-CoA thioesterase assay with radiolabeled acyl-CoA, lysate of cells over-expressing ACH1
Assay type: biochemical
Details: lysate of transfected E. coli cells
Description: In these assays, radiolabeled acyl-CoA is used as a substrate in which the [^14C] label is on the fatty acid portion of the molecule, and the enzyme activity is measured by the amount of labeled free fatty acid released by the action of the enzyme. Typically, the acyl group is palmitoyl-CoA (16:0 Co-A) or oleoyl-CoA (18:1-CoA). Because the reaction pH must be below 9, as a pH above this level causes base-catalyzed hydrolysis of the substrate, in most experiments the enzyme activity is measured between pH 7 and 9. The reactions are conducted at room temperature. The reaction volume is generally kept from about 32 μl to 100 μl. Although the reaction times may vary, typical incubation times are 10-15 minutes, which is sufficient for even small amounts of protein.
The protein solution to be assayed, which can be purified protein over-expressed in E. coli or unpurified protein in a plant extract or a plant subfraction, such as purified chloroplasts, is brought to the desired volume with buffer (20 mM Tris-HCl, pH 7.2, 200 mM NaCl and 1 mM EDTA). […] An 850 μl aliquot of the hexane phase is added to 3 ml BCS, and the amount of radioactivity determined in a scintillation counter.
The level of acyl-CoA thioesterase activity is determined by the amount of radioactivity that is found in the hexane phase. […]

B1: ACH1: Arabidopsis acyl-CoA thioesterase ACH1 (SEQ ID NO:5), expressed as fusion protein with a 6 histidine tag; assayed as cell lysate (protein, listed as Arabidopsis thaliana)
chain: MNTESVVEFLGNVTLLQRLPSSSLKRISEVVVFKGYDRGDYVVRENQNVDGVYFLLQGQAQVLRSAGEENYQEFPLKRYDFFGHGIFGDVYSADVVAVTELTCLLLMSDHRALLEIKSVSDSDKERCLVEDILYLEPLDLNVYRGFTPPNAPTYGKVYGGQLVGQALAAASKTVETMKIVHNFHCYFLLVGDINIPIIYDVNRLRDGNNFATRSVDARQKGKTIFTLFASFQKKQQGFIHQESTMPHTPAPETLLPREEMLERLVTEPLLPRDYRNQVATEISVPFPIDIRFCEPNRSTKQNKSPPRLKYWFRAKGKLSDDDQALHRCVVAFASDLIFATISLNPHRREGMSVAALSLDHSMWFHRPVRADDWLLFVIVSPTATESRGFATGKMFNRKGELVVSLTQEAVLREAVTIKPSFGAKL
With B1 the “acyl-CoA thioesterase activity of cell lysate compared with control plasmid cells” value was “no increased acyl-CoA thioesterase activity was observed in cell lysates; also recorded: no greater than the level of activity in cells transfected with a control plasmid”.
